In the supplement of paper PMC7877785:
± gives the uncertainty stated by the source.

Assay: self-splicing fitness, log relative to wild type (ln ratio); higher = more splicing; Tetrahymena group I intron in knt gene, E. coli kanamycin selection, DiMSum; sequences stand for … in CUCUCU…GGAGGGAAAAGUUAUCAGGCAUGCACCUGGUAGCUAGUCUUUAAACCAAUAGAUUGCAUCGGUUUAAAAGGCAAGACCGUCAAAUUGCGGGAAAGGGGUCAACAGCCGUUCAGUACCAAGUCUCAGGGGAAACUUUGAGAUGGCCUUGCAAAGGGUAUGGUAAUAAGCUGACGGACAUGGUCCUAACCACGCAGCCAAGUCCUAAGUCAACAGAUCUUCUGUUGAUAUGGAUGCAGUUCACAGACUAAAUGUCGGUCGGGGAAGAUGUAUUCUUCUCAUAAGAUAUAGUCGGACCUCUCCUUAAUGGGAGCUAGCGGAUGAAGUGAUGCAACACUGGAGCCGCUGGGAACUAAUUUGUAUGCGAAAGUAUAUUGAUUAGUUUUGGAGUACUCGUGGUCG
How it was run: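 Library with all eight P1ex-region intron nucleotides randomised, intron inside the knt kanamycin-resistance gene on pET-22b(+), in E. coli BL21(DE3). Cells grew overnight at 37°C or 30°C on LB agar with or without 25 μg/mL kanamycin (plus 100 μg/mL carbenicillin, 50 μM IPTG, 0.2% rhamnose), in six replicate transformations. Pooled colonies were amplicon-sequenced on Illumina HiSeq 2500. DiMSum fitness is the error-weighted combination of wild-type-normalised replicate fold changes, kanamycin versus none.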

Sequence | self-splicing fitness (ln) (30 °C) | self-splicing fitness (ln) (37 °C)
GAUUAGCAAUAUUACGAGCA | -1.27 ± 0.17 | 0.106 ± 0.14
AUGUAGCAAUAUUACGCCCC | -0.236 ± 0.22 | -0.186 ± 0.3
UUUCAGCAAUAUUACGCAAU | -2.36 ± 0.21 | -0.692 ± 0.23
AGUAAGCAAUAUUACGAUUC | -1.31 ± 0.14 | -0.96 ± 0.22
AUUAAGCAAUAUUACGUUCG | -0.91 ± 0.1 | -0.85 ± 0.14
UCGGAGCAAUAUUACGCGCU |  | -2.3 ± 0.37
GUGGAGCAAUAUUACGCACU | 0.427 ± 0.33 | 
GCGGAGCAAUAUUACGCAAC | -2.35 ± 0.48 | 
GCCGAGCAAUAUUACGCCAC | -2.11 ± 0.34 | 
UGCUAGCAAUAUUACGGUCU | -0.539 ± 0.084 | -0.14 ± 0.08
UGUGAGCAAUAUUACGUGUC |  | -1.75 ± 0.28
CCCUAGCAAUAUUACGGCGA | -2.43 ± 0.13 | -2.19 ± 0.17
CGUGAGCAAUAUUACGGCGA | -2.31 ± 0.36 | -0.845 ± 0.34
GUAUAGCAAUAUUACGCCUA | -1.64 ± 0.27 | -0.116 ± 0.22
UUGAAGCAAUAUUACGGACU | 0.0826 ± 0.16 | 0.0377 ± 0.12
CAAUAGCAAUAUUACGAUUU | -2.3 ± 0.091 | -0.775 ± 0.084
CGUUAGCAAUAUUACGGUGC | -3.11 ± 0.23 | -2.59 ± 0.5
GAUCAGCAAUAUUACGGUGG | -1.36 ± 0.057 | -0.762 ± 0.073
CCCGAGCAAUAUUACGAGCA | -2.24 ± 0.27 | -2.04 ± 0.25
CCCUAGCAAUAUUACGAGAG | -3.79 ± 0.3 | -2.5 ± 0.23
UUAAAGCAAUAUUACGUACG | 0.121 ± 0.083 | 0.746 ± 0.1
GGCAAGCAAUAUUACGUGAU | -0.97 ± 0.078 | -0.169 ± 0.092
AUCGAGCAAUAUUACGAACG | -2.49 ± 0.22 | -1.65 ± 0.33
GGCAAGCAAUAUUACGAUGC | -2.36 ± 0.11 | -1.02 ± 0.12
UAAUAGCAAUAUUACGCGAC | -3.42 ± 0.35 | -1.61 ± 0.34
CCGCAGCAAUAUUACGUCUA | -1.79 ± 0.32 | -3 ± 0.3
CAGAAGCAAUAUUACGGCAA | -2.48 ± 0.22 | -1.25 ± 0.19

Sequence | self-splicing fitness (ln) (30 °C) | self-splicing fitness (ln) (37 °C)
CAAAAGCAAUAUUACGGCCG | 0.257 ± 0.11 | 0.574 ± 0.16
GAGAAGCAAUAUUACGAGAA | -2.75 ± 0.47 | -0.703 ± 0.35
CGAAAGCAAUAUUACGCCCU | -0.989 ± 0.15 | 0.0487 ± 0.19
GGUAAGCAAUAUUACGUGGG | -4.06 ± 0.3 | -2.36 ± 0.25
UUGGAGCAAUAUUACGAGUA |  | -2.45 ± 0.48
ACAGAGCAAUAUUACGACGU | -1.31 ± 0.091 | -0.557 ± 0.11
AUCGAGCAAUAUUACGUUAA | -3.73 ± 0.27 | -2.48 ± 0.29
CGUGAGCAAUAUUACGUUGA | -2.89 ± 0.3 | -2.94 ± 0.43
CUCUAGCAAUAUUACGCAUU | -4.34 ± 0.39 | -4 ± 0.39
CCGUAGCAAUAUUACGACUU | -2.98 ± 0.37 | -2.67 ± 0.41
ACCAAGCAAUAUUACGACAG | -1.81 ± 0.078 | -1.82 ± 0.11
GUAAAGCAAUAUUACGGUGG | -2.81 ± 0.11 | -1.48 ± 0.11
GUUGAGCAAUAUUACGCAUG | -2.87 ± 0.16 | -1.18 ± 0.16
UGGAAGCAAUAUUACGAAGA | -2.23 ± 0.28 | -1.01 ± 0.28
AAGGAGCAAUAUUACGCCAG | -2.29 ± 0.26 | -3.1 ± 0.35
GGGUAGCAAUAUUACGGAGC | -1.42 ± 0.14 | -0.425 ± 0.17
AAGGAGCAAUAUUACGUUGA | -3.47 ± 0.23 | -2.52 ± 0.19
GCGAAGCAAUAUUACGUAAG | -2.04 ± 0.11 | -1.41 ± 0.13
ACUAAGCAAUAUUACGAUAG | -1.34 ± 0.076 | -0.427 ± 0.096
AACGAGCAAUAUUACGCAGA | -4.04 ± 0.3 | -2.18 ± 0.23
AAAUAGCAAUAUUACGGAAG | -3.63 ± 0.25 | -2.15 ± 0.18
GUUUAGCAAUAUUACGUGGG | -3.78 ± 0.37 | -2.45 ± 0.23
UCGGAGCAAUAUUACGUCCC | -1.39 ± 0.46 | 
UACAAGCAAUAUUACGCUGU |  | -1.65 ± 0.28
UACGAGCAAUAUUACGUAGG | -3.41 ± 0.31 | -2.57 ± 0.28
CCCCAGCAAUAUUACGCCGG | -4.29 ± 0.21 | -1.88 ± 0.16
AAGCAGCAAUAUUACGAUGC | -1.38 ± 0.11 | -0.411 ± 0.13

Sequence | self-splicing fitness (ln) (30 °C) | self-splicing fitness (ln) (37 °C)
UCUAAGCAAUAUUACGAGAC | -1.53 ± 0.12 | -2.52 ± 0.2
AUUAAGCAAUAUUACGCGAA | -1.32 ± 0.11 | -0.882 ± 0.13
CUCCAGCAAUAUUACGACAA | -2.27 ± 0.23 | -2.29 ± 0.31
CUGAAGCAAUAUUACGCCUG | -0.0552 ± 0.12 | 0.982 ± 0.16
AAGGAGCAAUAUUACGUAGU |  | -2.03 ± 0.27
CAUAAGCAAUAUUACGUGAC | -2.48 ± 0.15 | -2.03 ± 0.22
CCACAGCAAUAUUACGAAGC | -3.85 ± 0.2 | -2.3 ± 0.15
CAAGAGCAAUAUUACGCUAA | -3.93 ± 0.27 | -1.52 ± 0.21
AAGCAGCAAUAUUACGAGCG | -1.12 ± 0.11 | -0.344 ± 0.14
GAAUAGCAAUAUUACGCCGU | -1.6 ± 0.1 | -0.466 ± 0.11
UAGCAGCAAUAUUACGCGUG | -1.5 ± 0.076 | -0.257 ± 0.1
CCAGAGCAAUAUUACGGGCC | -2.83 ± 0.22 | -2.55 ± 0.26
GAAUAGCAAUAUUACGAGUC | -3.29 ± 0.15 | -1.4 ± 0.11
CUAAAGCAAUAUUACGAUAU | -3.84 ± 0.19 | -3.13 ± 0.18
AUGCAGCAAUAUUACGGCAU | -3.9 ± 0.19 | -2.61 ± 0.15
CUGAAGCAAUAUUACGAGUG | 0.0379 ± 0.053 | 0.068 ± 0.084
UAGGAGCAAUAUUACGUUUU | -1.88 ± 0.23 | -1.89 ± 0.27
GGUAAGCAAUAUUACGGGUA | -1.98 ± 0.22 | -1.71 ± 0.18
AGUCAGCAAUAUUACGGUUU | -0.329 ± 0.065 | -0.197 ± 0.08
UCAUAGCAAUAUUACGUCCG | 0.46 ± 0.24 | -1.67 ± 0.29
AUUUAGCAAUAUUACGCACG | -1.9 ± 0.28 | -0.778 ± 0.2
GUCCAGCAAUAUUACGUCAG | -4.93 ± 0.28 | -2.16 ± 0.14
AGCCAGCAAUAUUACGUGUA | -3.52 ± 0.14 | -1.34 ± 0.11
AAAUAGCAAUAUUACGUUCG | -1.17 ± 0.088 | -0.371 ± 0.13
AUUAAGCAAUAUUACGGAUG | -2.15 ± 0.14 | -2.02 ± 0.22
